Experiment [1] concerns the target T1, SARS-CoV2 Spike-GFP protein on 293T cells (SARS-CoV-2, UniProt P0DTC2 14-1273).
T1 construct: whole, on cells
Briefly: flow cytometry on 293T cells expressing Spike-GFP, % gated read-out. (In general: A flow cytometer gives signals particle by particle.)

For experiment [2], the target named is T2, SARS-CoV-2 (COVID-19) S Protein RBD, His Tag (SARS-CoV-2, UniProt P0DTC2 319-537). Kind of experiment: BLI (Octet), LCB1 binding to anchored Spike RBD.
The target in experiment [3] is T2, SARS-CoV-2 (COVID-19) S Protein RBD, …. Briefly: ELISA, Spike RBD anchored on plate. In general terms: An ELISA detects its analyte on a solid surface through an enzyme-linked reagent.

B1: I-26 (other)
peptide: DKEEILNKIYEIMRLLDELGNAEASMRVSDLILEFMKKGDERLLEEAERLLEEVERGGSEQKLISEEDLGSGGGGSLPET
notes: also called MATE agent I-26
B1: in experiment [1], the IC50 (usually the midpoint of a concentration-inhibition curve) worked out at 1.3 nM.

B2: I-24 (designed binder)
chain: DKEEILNKIYEIMRLLDELGNAEASMRVSDLILEFMKKGDERLLEEAERLLEEVERGGSEQKLISEEDLGSGGGGSLPETGGGGSGGSSHHHHHHHHHH
notes: also called P227; LCB1
For B2, the binding result in experiment [2] is given as “no binding”.

B3: I-27 (other)
peptide: NDDELLMLVTDLVAEALLFAKDEEIKKRVFTLFELADKAYKNNDRDTLSKVVSELKELLERLQSGGSEQKLISEEDLGSGGGGSLPET
notes: also called MATE agent I-27
Turning to B3, the EC50 – broadly, the concentration needed to bring the measured effect to its halfway point – in experiment [3] was determined as 4 nM.
